The source of these data is article PMC8136917, “The glycosyltransferase UGT76B1 modulates N-hydroxy-pipecolic acid homeostasis and plant immunity” (The Plant Cell, 2021).

Substrate in data set [1]: O=C(O)[C@@H]1CCCCN1O
As to the kind of experiment: UPLC-nanoESI-QTRAP-MS of product NHP-OGlc; Hill regression. In kind it is biochemical, Arabidopsis thaliana. To be noted: UDP-glucose co-substrate (2 mM in methods); 5 min at 25°C (Figure 6 legend; methods say 15 min at 30°C).

Substrate in data set [2]: O=C(O)c1ccccc1O
As to the kind of experiment: UPLC-nanoESI-QTRAP-MS of product SAG; Hill regression. In kind it is biochemical, Arabidopsis thaliana. Conditions: UDP-glucose co-substrate (2 mM in methods); 5 min at 25°C (Figure 6 legend; methods say 15 min at 30°C).

B1: UGT76B1 (Arabidopsis thaliana) (protein)
chain: METRETKPVIFLFPFPLQGHLNPMFQLANIFFNRGFSITVIHTEFNSPNSSNFPHFTFVSIPDSLSEPESYPDVIEILHDLNSKCVAPFGDCLKKLISEEPTAACVIVDALWYFTHDLTEKFNFPRIVLRTVNLSAFVAFSKFHVLREKGYLSLQETKADSPVPELPYLRMKDLPWFQTEDPRSGDKLQIGVMKSLKSSSGIIFNAIEDLETDQLDEARIEFPVPLFCIGPFHRYVSASSSSLLAHDMTCLSWLDKQATNSVIYASLGSIASIDESEFLEIAWGLRNSNQPFLWVVRPGLIHGKEWIEILPKGFIENLEGRGKIVKWAPQPEVLAHRATGGFLTHCGWNSTLEGICEAIPMICRPSFGDQRVNARYINDVWKIGLHLENKVERLVIENAVRTLMTSSEGEEIRKRIMPMKETVEQCLKLGGSSFRNLENLIAYILSF
By Km is commonly meant the substrate concentration at which the rate is half of its maximum. B1: the Michaelis-Menten constant (Km) in data set [1] is 191 ± 14 µM; in data set [2], 75 ± 2 µM.
